Measured values taken from the supplement of paper PMC10724198.
± gives the standard deviation of the averaged measurements.

These sequences were tested on Saccharomyces cerevisiae (assay: protein stability index of tFT-peptide fusion (C-terminal peptide) (PSI (0-1 scale)); higher = more stable (slower turnover)). Details: genetic background: wild type; temperature: 30 C.
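Note: PSI is a weighted mean of sequencing reads over stability bins, variants kept only with over 10 reads, mCherry proximal and sfGFP distal, peptide attached via GGGS linker.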

Sequence | protein stability index
NSSKHAWAWPVP | 0.68 ± 0.029
NSYVGSSTYVIV | 0.692 ± 0.033
NTNNKKNSKHSN | 0.661 ± 0.02
NTQPSNRTQRKY | 0.669 ± 0.1
NTTQKKKGGRKA | 0.747 ± 0.15
NVIGGGRSAGLV | 0.609 ± 0.053
NVKIDNKQRKNK | 0.746 ± 0.019
NVNAVAVILGAC | 0.562 ± 0.0061
NVRKWSREDQTG | 0.6679 ± 0.00079
NWARLGVRMGAA | 0.66 ± 0.013
NWKNENGRELEE | 0.7 ± 0.029
NYLPLCCSMLAG | 0.588 ± 0.015
PAAIARNPLPHR | 0.605 ± 0.075
PAALPHTPSAPY | 0.666 ± 0.04
PAASHPPRWPRR | 0.75 ± 0.049
PACFESCGLWGF | 0.75 ± 0.039
PACSFPPPPFSA | 0.703 ± 0.1
PACSPLLAARVT | 0.711 ± 0.061
PADAPPPTRPEA | 0.724 ± 0.032
PAFVPPFTPATP | 0.76 ± 0.033
PAGLITRSWNLV | 0.565 ± 0.028
PALRTTRCLPLP | 0.703 ± 0.019
PAPCPLFVPSPT | 0.655 ± 0.012

Sequence | protein stability index
PAPLLPLSPPRP | 0.709 ± 0.042
PAPLPADTFVEC | 0.668 ± 0.065
PAPLPPRPTSLP | 0.711 ± 0.011
PAPPPPLLPRSL | 0.727 ± 0.011
PAPPPPPPPPLH | 0.701 ± 0.083
PAPPPPPTDTPP | 0.623 ± 0.0095
PAPPPVLDTPLP | 0.6018 ± 0.0057
PAPRPLSPPPTF | 0.699 ± 0.0091
PARCRPSSPAPL | 0.726 ± 0.016
PARLLIEFPSYS | 0.684 ± 0.021
PARPIPFPQPCY | 0.538 ± 0.032
PARPLFAPSFFT | 0.699 ± 0.047
PASSAPLSLLPC | 0.655 ± 0.084
PASSSFVCAVSR | 0.783 ± 0.091
PATRHSRLPPAS | 0.67 ± 0.018
PATRIDAFPPVP | 0.685 ± 0.022
PAVARPLGPPPY | 0.714 ± 0.045
PAVRGEMYLGVG | 0.685 ± 0.014
PCAFSLPPLQIP | 0.7 ± 0.012
PCGGGGRECVRG | 0.808 ± 0.1
PCLPPPLRLPPN | 0.631 ± 0.054
PCLVLSLYSDLP | 0.68 ± 0.032
PCPPAPPRFLLR | 0.732 ± 0.016

Sequence | protein stability index
PCPPRSLPPPTS | 0.835 ± 0.16
PCSSFPTFPRRL | 0.715 ± 0.017
PCVCLRWTGKAF | 0.532 ± 0.031
PCVPSRTISLPE | 0.684 ± 0.031
PDGGFSSVVSLR | 0.686 ± 0.076
PDRQNLSRPEKD | 0.702 ± 0.0092
PDRSLASPPTTR | 0.711 ± 0.069
PDSLCLSPPSLP | 0.686 ± 0.017
PDTCRYTAFHFH | 0.586 ± 0.02
PDVFLLHASPPG | 0.66 ± 0.098
PEKRDIQSGIVD | 0.696 ± 0.024
PFALADSDGDSK | 0.683 ± 0.059
PFFLSFPPSALL | 0.741 ± 0.021
PFFRAPTRPSVF | 0.716 ± 0.043
PFLSLPLSPPPP | 0.71 ± 0.092
PFPLPPPPSPTP | 0.699 ± 0.03
PFPPLPLPLPLP | 0.7123 ± 0.00013
PFPRPWRPLPTS | 0.7 ± 0.044
PFPSPSPLARLP | 0.704 ± 0.054
PFSLSLPPPPLP | 0.73 ± 0.026
PFSPLPGPPPPP | 0.733 ± 0.04
PFSPPPSTQPSY | 0.754 ± 0.15
PFSSPPPPCRSC | 0.718 ± 0.023

Sequence | protein stability index
PFSSVFNPGVLS | 0.644 ± 0.017
PFSVCVSSSLCG | 0.665 ± 0.0076
PFTHRTYREGRT | 0.676 ± 0.081
PFVIFHSCFSLV | 0.543 ± 0.011
PGALLPALPPPP | 0.71 ± 0.016
PGFTLLDFCLYH | 0.725 ± 0.0091
PGFVGPWAGGGA | 0.735 ± 0.12
PGGAGKAYGSRL | 0.707 ± 0.012
PGGLVVGAGRED | 0.709 ± 0.033
PGIAVPTGTSYV | 0.617 ± 0.06
PGIVTGCGNTFV | 0.708 ± 0.022
PGNKHYRARNGA | 0.678 ± 0.013
PGPKAAHSKRDR | 0.662 ± 0.058
PGPPFPMANTPF | 0.646 ± 0.048
PGRVAGGCGVLG | 0.64419 ± 0.00049
PGRYTDCCLPNR | 0.682 ± 0.022
PGSLRGATRPNQ | 0.739 ± 0.17
PGTVQVGFDIQV | 0.717 ± 0.018
PGWHLDPITALP | 0.712 ± 0.027
PHAEESNSTLSP | 0.765 ± 0.12
PHLAPPPGPLHP | 0.7233 ± 0.0024
PHLEVPARPRGT | 0.7148 ± 0.0042
PHLPSPRPRPPP | 0.722 ± 0.012

Sequence | protein stability index
PHMRSPTPLLRP | 0.697 ± 0.077
PHNPTFSPPTCP | 0.751 ± 0.027
PHPAPRRPPLPP | 0.687 ± 0.05
PHPRHQPNLRPT | 0.664 ± 0.024
PHPRPPPLSFAP | 0.681 ± 0.035
PHPSPRGTPCPT | 0.646 ± 0.021
PHRPSPPIPLSV | 0.662 ± 0.043
PHRSRPPPTPPV | 0.625 ± 0.061
PHSSSLSPCPSL | 0.687 ± 0.013
PHTHPPASLPPV | 0.638 ± 0.033
PHWGKRINEAHT | 0.6851 ± 0.0029
PHYPQSHPADPV | 0.668 ± 0.016
PIATTSVDAGRS | 0.634 ± 0.019
PICCPLILTRSL | 0.706 ± 0.019
PIHCTVMGATTC | 0.657 ± 0.073
PIPPLPSSRLGV | 0.602 ± 0.037
PIPRAASPLLPM | 0.588 ± 0.007
PISAGGGVVWVE | 0.6491 ± 0.0047
PITSPPQVLLQH | 0.686 ± 0.033
PKTKKEKQKKKV | 0.704 ± 0.034
PLCVFHYSSDDY | 0.705 ± 0.054
PLESRPHNAHQR | 0.663 ± 0.09
PLFAPLTPPLPP | 0.734 ± 0.033

Sequence | protein stability index
PLFLHSAHVSPI | 0.712 ± 0.071
PLFPPASVVVLY | 0.663 ± 0.036
PLFSASLFSLSL | 0.747 ± 0.068
PLFSPPFLPFSL | 0.711 ± 0.028
PLGQVLRVSSDF | 0.75473 ± 0.00037
PLGVGLVDGEAP | 0.715 ± 0.072
PLHPPPPPPPHP | 0.717 ± 0.064
PLHSLPSRTPPS | 0.7088 ± 0.006
PLHSTPRPPAPG | 0.706 ± 0.098
PLIDRKIKKAIQ | 0.705 ± 0.069
PLISYIEGGPTS | 0.674 ± 0.02
PLLAQSALFVIA | 0.5904 ± 0.0055
PLLHPTGFMGFP | 0.74 ± 0.028
PLLLLLPPPPSP | 0.674 ± 0.033
PLLLPPLPRTPF | 0.622 ± 0.0066
PLLPLSFRIPPF | 0.702 ± 0.014
PLLPPALCPFPP | 0.685 ± 0.029
PLLPPPGALFLL | 0.718 ± 0.057
PLLPSFPPPPAP | 0.51 ± 0.014
PLLPSGIPLFLS | 0.574 ± 0.016
PLLRLVPVPSVI | 0.5537 ± 0.0025
PLLSAFPPRPFP | 0.682 ± 0.12
PLLSSPAHPLPP | 0.687 ± 0.053

Sequence | protein stability index
PLMKHSHSSLPF | 0.7016 ± 0.0043
PLPEQIEATTAS | 0.6921 ± 0.00086
PLPFPPPLPSHR | 0.767 ± 0.11
PLPHPPRPLPPH | 0.717 ± 0.015
PLPLLSLPRFPL | 0.753 ± 0.1
PLPLPFGPPSLP | 0.753 ± 0.15
PLPLPLPQTLPP | 0.6958 ± 0.0067
PLPLPPPFILPT | 0.646 ± 0.052
PLPPHAPPNSAP | 0.656 ± 0.079
PLPPIPPSTPST | 0.726 ± 0.017
PLPPLPPTAPPP | 0.686 ± 0.015
PLPPLSSPRPPP | 0.711 ± 0.071
PLPPPGPPRLSR | 0.723 ± 0.0075
PLPPPHSPPPSA | 0.677 ± 0.011
PLPPPPPLPFHL | 0.79 ± 0.095
PLPPPPPPPPPT | 0.681 ± 0.023
PLPPPPPPPSPS | 0.835 ± 0.11
PLPPPPRPPLRP | 0.6941 ± 0.0052
PLPPPSPSTPPP | 0.796 ± 0.065
PLPPPVFLLFPL | 0.667 ± 0.051
PLPPRPCCLPRP | 0.644 ± 0.098
PLPRAPSPPPPP | 0.694 ± 0.023
